The source of these data is the supplement of paper PMC9170038.

The test system of the data set is MS2 coat protein. The experiment in a line: apparent KD of MS2 coat protein; designed switch direction (-1 OFF switch, 1 ON switch): -1; higher = weaker reporter binding. The method in brief:
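Each step of the titration lasted 0.8–1.5 h at the lowest concentration and 10–20 min at the highest. The protein, SNAP-549-labelled MS2 coat protein, went from 0.7 or 1.5 nM doubling to 3 µM over RNA switches transcribed on Illumina chips by stalled E. coli RNA polymerase. Normalised cluster fluorescence was curve-fitted, and the per-design median over clusters is given as apparent KD.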

[1] abbreviates: input ligand: microRNA oligo, concentration not stated.
[2] abbreviates: Eterna round: R95, input ligand: FMN 200 uM.
The mark [3] stands for this setting: Eterna round: R95, input ligand: microRNA oligo, concentration not stated.
[4] abbreviates: Eterna round: R95, input ligand: none.

In the case of “ACAUGAGGAUCACCCAUGUCCGUCUGAUCUGUCUCGGCUGUCGAGGAUAUAGCCCGGUAUCCGCGCUAGAAGGUGGGAGUCGGA [Aenatbe mod 100] (Eterna round: R96, puzzle: Exclusion NG 3)”, the “apparent KD of MS2 coat protein” value amounted to 34.9 nM (input ligand: FMN 200 uM), 33.4 nM under setting [1] and 42 nM (input ligand: none).
For the sequence “GUCAGCUCGUGAGGAUAUACAUCACUGCUUCGGCAGUGUAUUAAGAUCACAUGAGGAUCACCCAUGUAGAAGGCACGAGCUGAC [ENG2/2-A1] (Eterna round: R96, puzzle: Exclusion NG 2)”, the “apparent KD of MS2 coat protein” value was 309 nM (input ligand: FMN 200 uM), 34 nM under setting [1] and 29.6 nM (input ligand: none).
“GGCCCUAGGGUCAGAUGCACAAGCUUUUUGCUCGUUUUAACAUGAGGAUCACCCAUGUCUAGUGGAUCUGAUCGGGU [Indiso] (puzzle: Sensor v3, turn-off variant 2)”: the “apparent KD of MS2 coat protein” value was found to be 18.2 nM under setting [2], 48.7 nM under setting [3] and 17.4 nM under setting [4].
Take “UCAUGUUUAGAGGAUAUGAUUACUUUUGAGUAAUCAGAAGGCUAGACAUGAGGAUCACCCAUGUCAUAACAUGA [Exclusion 6 - B - 15:d] (Eterna round: R96, puzzle: Exclusion 6)”: the “apparent KD of MS2 coat protein” value by setting is: (input ligand: FMN 200 uM) 341 nM; under setting [1], 75.9 nM; (input ligand: none) 242 nM.
Take “GGUACUCAAAGAGUACCAAUACGAACAUGAGGAUCACCCAUGUAGGAUAUGCUACUCAAAGAGUAGCAGAAGGACGUGAACCCU [Far Half Aptamer] (Eterna round: R96, puzzle: Exclusion NG 3)”: the “apparent KD of MS2 coat protein” value reads like this: (input ligand: FMN 200 uM) 164 nM; under setting [1], 26.5 nM; (input ligand: none) 40.5 nM.
Regarding “AUAAUGUGAGGAUAUCACGGCCCGGAGAAUCCGGUAAACGAUGAGAAGGCACAUGAGGAUCACCCAUGUUCCUG [EX4 A.4] (Eterna round: R97, puzzle: Exclusion 4)”, the “apparent KD of MS2 coat protein” value was 44.3 nM (input ligand: FMN 200 uM) and 18.3 nM (input ligand: none).
On to “UUUUAACAUGAGGAUCACCCAUGUGAGGAUAUCGAAAUUUAUAUUAAUAUUUAUUUUUCGAGAAGGCACAUUUU [JMF 65] (puzzle: Exclusion 1)”, for which the “apparent KD of MS2 coat protein” value under setting [3] was 157 nM.
For the sequence “UAAUUUUUAGUAAGGAUAUCGGUCCCAAGGGACAACGAGAAGGUACAUGAGGAUCACCCAUGUGACGAAAGAAU [Mod of Zala 9 - Jieux - Brourd's Mod of Exclusion 4] (Eterna round: R97, puzzle: Brourd's mod of Exclusion 4)”, the “apparent KD of MS2 coat protein” value runs as follows: (input ligand: FMN 200 uM) 35.6 nM; (input ligand: none) 15.5 nM.
On the same counts, the results for “ACUUAUUGAGGAUAUACAUUAAAUUACAUGAGGAUCACCCAUGUUCUUCAAUGUAUAUAUGUAGAAGGCAAAAGAG [Mat - Exclusion 5 - JL Mod - D22] (Eterna round: R97, puzzle: Exclusion 5)” are 26.5 nM and 14.4 nM.
With “AAUUAGCAAGCGAGAUCCCACAUGAGGAUCACCCAUGUGCUCGUCUUAUAUAAGGUACUGUACGAAAGUACGGUACC [Mat - Sensor, turn-off var - Eli Mod - D31] (Eterna round: R97, puzzle: Sensor, turn-off variant 1)”, the “apparent KD of MS2 coat protein” value was determined as 16.4 nM (input ligand: FMN 200 uM) and 16.4 nM (input ligand: none).
For “GCAUUUGAGCAGGAUAUAGCCUGAACAUAAUGGUUAGAAGGGCUCACAUGAGGAUCACCCAUGUGGUGUCCAAA [Inratete] (puzzle: Exclusion 6)”, the “apparent KD of MS2 coat protein” value under setting [2] was 76.4 nM, the “apparent KD of MS2 coat protein” value under setting [3] turned out to be 15.3 nM and the “apparent KD of MS2 coat protein” value under setting [4] worked out at 15.6 nM.
In the case of “AAACCACAUGAGGAUCACCCAUGUGAGGAUAUGAUACUAUGUACUUCGGUACAUAGUAUCAGAAGGCAUGUGGA [Ex1-3: 88] (puzzle: Exclusion 1)”, the “apparent KD of MS2 coat protein” value under setting [3] was 168 nM.
On to “AACAACUCUGUGAGGAUAUGCAAUUGUUGAUCAAGGCAGAAGGCACAUGAGGAUCACCCAUGUUCCUACAAGGG [Reatanan] (puzzle: Brourd's mod of Exclusion 4)”, for which the “apparent KD of MS2 coat protein” value under setting [3] worked out at 46.5 nM.
